From publication PMC12470901, “Bioelectrocatalyst for O2 Reduction Based on a Novel Recombinant Two-Domain Laccase from Streptomyces ochraceisleroticus Immobilized on Naphthyl-Modified MWCNTs” (International Journal of Molecular Sciences, 2025)

B1: SoSL (Ac-651) (Streptomyces ochraceiscleroticus) (protein)
chain: ASAAAPAAASQDAVRRAGAGGEVKHLKLYMEQLPDGKLGYGLEKGKATVPGPLIELIEGDTLHIEVTNTLDVAASLHVHGVDYDTASDGTKMNRSHIEPGGTRTYTWRTHRPGRRKDGTWRPGSAGYWHYHDHVVGTEHGTGGIRKGLYGPVVVRREGDILPDPDRQFTIVFNDMTINNLPKGPDFKATIGDRVEIIMITHGEYYHTFHVHGHRWADNRTGLLEGPDDPSRIVDNKITGPADSFGFQFLAGEGVGAGSWMYHCHVQSHSDMGMAGMLLIAKPDGTIPGHDGHH
notes: TAT signal peptide removed (lacks 36 N-terminal residues of 329), pQE-30 His-tag, E. coli M15 [pREP4], Ni-sepharose; 33 kDa computed, ~35 kDa SDS-PAGE; trimeric

How the values were obtained:
SoSL (Ac-651) = biological target: T1, SoSL (Ac-651) (Streptomyces ochraceiscleroticus, UniProt A0ABW1MU60); details: pH 3.7; inhibitor
T1 construct: gene ACFP4F_27515
T1 sequence (A0ABW1MU60 37-329): B1 chain

purified protein [1] = substrate: CCn1c(=NN=c2sc3cc(S(=O)(=O)O)ccc3n2CC)sc2cc(S(=O)(=O)O)ccc21; experiment: purified protein; format: biochemical, Streptomyces ochraceiscleroticus; details: pH 3.5, 30 °C, 50 mM Britton–Robinson buffer, free enzyme (b72 lists the two pH values in reversed order)
purified protein [2] = substrate: COc1cccc(OC)c1O; experiment: purified protein; format: biochemical, Streptomyces ochraceiscleroticus; details: pH 9.0, 30 °C, 50 mM Britton–Robinson buffer, free enzyme (b72 lists the two pH values in reversed order)

| Molecule | 10 mM (SoSL (Ac-651)) [%] | Km (purified protein [1]) [µM] | kcat (purified protein [1]) [s⁻¹] | Km (purified protein [2]) [µM] | kcat (purified protein [2]) [s⁻¹] |
| --- | --- | --- | --- | --- | --- |
| F [sodium fluoride] | 67.8 ± 0.6 |  |  |  |  |
| B1 |  | 50 | 106 | 760 | 0.11 |
